± gives the uncertainty stated by the source.
Assay: self-splicing fitness, log relative to wild type (ln ratio); higher = more splicing; Tetrahymena group I intron in knt gene, E. coli kanamycin selection, DiMSum; sequences stand for … in CUCUCU…GGAGGGAAAAGUUAUCAGGCAUGCACCUGGUAGCUAGUCUUUAAACCAAUAGAUUGCAUCGGUUUAAAAGGCAAGACCGUCAAAUUGCGGGAAAGGGGUCAACAGCCGUUCAGUACCAAGUCUCAGGGGAAACUUUGAGAUGGCCUUGCAAAGGGUAUGGUAAUAAGCUGACGGACAUGGUCCUAACCACGCAGCCAAGUCCUAAGUCAACAGAUCUUCUGUUGAUAUGGAUGCAGUUCACAGACUAAAUGUCGGUCGGGGAAGAUGUAUUCUUCUCAUAAGAUAUAGUCGGACCUCUCCUUAAUGGGAGCUAGCGGAUGAAGUGAUGCAACACUGGAGCCGCUGGGAACUAAUUUGUAUGCGAAAGUAUAUUGAUUAGUUUUGGAGUACUCGUGGUCG
How it was run: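 A randomised library covering all eight P1ex-region intron nucleotides was built with the intron in the knt kanamycin-resistance gene on pET-22b(+) and held in E. coli BL21(DE3). Cells were grown overnight at 37°C or 30°C on LB agar, with or without 25 μg/mL kanamycin, plus 100 μg/mL carbenicillin, 50 μM IPTG and 0.2% rhamnose, and pooled colonies were amplicon-sequenced on an Illumina HiSeq 2500. DiMSum fitness is the error-weighted combination of wild-type-normalised replicate fold changes, kanamycin versus none.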

Sequence | self-splicing fitness (ln) (30 °C) | self-splicing fitness (ln) (37 °C)
AUACAGCAAUAUUACGCAUU | -1.85 ± 0.088 | -1.4 ± 0.11
AUCGAGCAAUAUUACGAAAG | -2.41 ± 0.13 | -0.783 ± 0.14
UUUUAGCAAUAUUACGUUGU | -2.65 ± 0.18 | -2.13 ± 0.24
CUCUAGCAAUAUUACGGCUA | -2.32 ± 0.26 | -1.28 ± 0.24
UAUAAGCAAUAUUACGCAUU | -2.15 ± 0.21 | -0.414 ± 0.14
GGGUAGCAAUAUUACGCUUG | -0.33 ± 0.1 | -0.241 ± 0.15
GUAAAGCAAUAUUACGUCAA | -1.56 ± 0.098 | -0.85 ± 0.097
UGUCAGCAAUAUUACGAGAU | -3.11 ± 0.22 | -2.56 ± 0.27
UCGAAGCAAUAUUACGGAAA | -1.95 ± 0.49 | -0.855 ± 0.25
CGGCAGCAAUAUUACGGAAG | -1.07 ± 0.09 | -0.442 ± 0.12
AGAAAGCAAUAUUACGCACC | 0.221 ± 0.098 | 0.0714 ± 0.12
CCGAAGCAAUAUUACGCGAA | – | -2.24 ± 0.2
AAGUAGCAAUAUUACGACGU | -0.114 ± 0.059 | 0.403 ± 0.078
ACUUAGCAAUAUUACGCCUC | -2.19 ± 0.26 | -1.64 ± 0.3
GGGGAGCAAUAUUACGUCCU | -3.89 ± 0.4 | –
UAUCAGCAAUAUUACGAUGA | -0.667 ± 0.075 | 0.19 ± 0.099
GAUGAGCAAUAUUACGGACU | -1.79 ± 0.25 | -1.66 ± 0.38
GUCCAGCAAUAUUACGCUGG | -4.01 ± 0.12 | -3.25 ± 0.11
CCUAAGCAAUAUUACGCGAG | -4.48 ± 0.25 | -3.56 ± 0.23
GAAAAGCAAUAUUACGUCAU | -1.82 ± 0.088 | -0.42 ± 0.097

Sequence | self-splicing fitness (ln) (30 °C) | self-splicing fitness (ln) (37 °C)
UGCCAGCAAUAUUACGGCCC | -0.651 ± 0.12 | -0.528 ± 0.17
UCCGAGCAAUAUUACGGCGU | -1.17 ± 0.081 | -0.438 ± 0.11
UCCUAGCAAUAUUACGACCG | -3.3 ± 0.28 | -3.65 ± 0.34
AGGGAGCAAUAUUACGAGCG | -2.94 ± 0.47 | -0.874 ± 0.43
GAACAGCAAUAUUACGAUUC | -1.65 ± 0.072 | -1.21 ± 0.11
GCCAAGCAAUAUUACGGAAG | -3.55 ± 0.34 | -2.57 ± 0.33
UAUUAGCAAUAUUACGAGAU | – | -2.01 ± 0.34
UAUAAGCAAUAUUACGGGUG | -0.65 ± 0.074 | 0.0941 ± 0.12
UGUAAGCAAUAUUACGUCUA | -0.00173 ± 0.09 | 0.151 ± 0.11
ACCAAGCAAUAUUACGUUUC | -4.28 ± 0.17 | -2.55 ± 0.14
GAUUAGCAAUAUUACGGGGA | -2.86 ± 0.19 | -2.71 ± 0.2
UACAAGCAAUAUUACGAGAU | -3.65 ± 0.28 | -3.07 ± 0.28
UUCUAGCAAUAUUACGUAAC | -3.19 ± 0.33 | -1.32 ± 0.27
GAUAAGCAAUAUUACGGGUC | -3.26 ± 0.14 | -1.81 ± 0.13
UGGUAGCAAUAUUACGAUCA | -0.00935 ± 0.1 | 0.325 ± 0.13
GUAGAGCAAUAUUACGUGGG | -2.75 ± 0.17 | -2.08 ± 0.2
GGGUAGCAAUAUUACGUGAC | -2.07 ± 0.17 | -2.27 ± 0.26
CCGGAGCAAUAUUACGUGUG | -1.68 ± 0.039 | -1.05 ± 0.061
UGUCAGCAAUAUUACGUUAU | -3.1 ± 0.12 | -1.77 ± 0.11

From the supplement of paper PMC7877785
